Consider two molecules from article PMC8556268.

This experiment concerns the target T1, Biotinylated Tir-10_v2 (Biotin-Ahx-EHI-pY-DEVAAD).
T1 chain: EHIYDEVAAD
As to the kind of experiment: SPR; Biacore T100, 25 °C, Series S SA chip, about 15 RUs of biotinylated peptide captured; 10 mM HEPES pH 7.4, 150 mM NaCl, 3 mM EDTA, 0.05% P20, 0.1 mg/mL BSA; analytes 60 nM free SH2, 10 nM tcTRP24_(8)SS-SH2_(2), 10 nM tcTRP24_(8)SS; 50 μL/minute.

B1: free SH2 domain derived from the Nck adapter protein, P16333 282-376 (domain or fragment)
chain: WYYGKVTRHQAEMALNERGHEGDFLIRDSESSPNDFSVSLKAQGKNKHFKVQLKETVYCIGQRKFSTMEELVEHYKKAPIFTSEQGEKLYLVKHL
modifications: not checked
The molecule B1 had a maximum binding response of 125 RUs.

B2: tcTRP24_(8)SS-SH2_(2) (trimeric tcTRP24 particle with two Nck SH2 domains in each subunit, six in all), P16333 282-376; P16333 282-376 (protein)
chain: SELAARCLIILFQQLVELARLAIESGDEELLRRVSEWLEEVIKDMRRVVEQALREGNSELAARILIILFQQLVELARLAIESGDEELLRRVSEWLEEVIKDMRRVVEQALREGNWYYGKVTRHQAEMALNERGHEGDFLIRDSESSPNDFSVSLKAQGKNKHFKVQLKETVYCIGQRKFSTMEELVEHYKKAPIFTSEQGEKLYLVKHLSELAARILIILFQQLVELARLAIESGDEELLRRVSEWLEEVIKDMRRVVEQALREGNSELAARILIILFQQLVELARLAIESGDEELLRRVSEWLEEVIKDMRRVVEQALREGNSELAARILIILFQQLVELARLAIESGDEELLRRVSEWLEEVIKDMRRVVEQALREGNSELAARILIILFQQLVELARLAIESGDEELLRRVSEWLEEVIKDMRRVVEQALREGNWYYGKVTRHQAEMALNERGHEGDFLIRDSESSPNDFSVSLKAQGKNKHFKVQLKETVYCIGQRKFSTMEELVEHYKKAPIFTSEQGEKLYLVKHLSELAARILIILFQQLVELARLAIESGDEELLRRVSEWLEEVIKDMRRVVEQALREGNSELACRILIILFQQLVELARLAIESGDEELLRRVSEWLEEVIKDMRRVVEQALREGN
modifications: not checked
Turning to B2, the maximum binding response was 123 RUs.
